Where no end group is shown, it is not given here. [ ]: non-standard residue; d: D form. Gly(cPent) = N[C@H](C(=O)O)C1CCCC1 Where only a bound is given, the exact number is not on record here.

B1: E-[c5g]-AGIG-[amv]-LTV (peptide)
peptide: EXAGIGXLTV
modifications: [c5g] (aminocyclopentyl carboxylic acid) at position 2; [amv] at position 7 (abbreviation not defined in the filing)
notes: MART-1 decamer derivative with a double substitution

The target of one test is T1, HLA-A2 (HLA-A0201) MHC class I complex (human).
T1 construct: the methods section names HLA-A0201; also called HLA-A201; MHCI
In words: ITopia soluble class I plate-based stability assay, 37 C. On the procedure:
(§1) MHCI complexes were dissociated in each test well using stripping buffer, and the place-holder peptide and beta 2 microglobulin were washed away. 100 uM of the test peptide was added to appropriate wells along with additional beta 2 microglobulin and the anti-HLA ABC antibody, and the plates were incubated overnight at 21° C. Plates were washed, and fresh buffer was added to each well. Plates were shifted to 37° C., and the appropriate wells were read at 0, 0.5, 1, 1.5, 2, 4, 6 and 8 hours.
As to AXGIGILTV ([cpg] (L-cyclopentylglycine) at position 2, MART-1 nonamer derivative) [A-[cpg]-GIGILTV], the “Half Life of Complex” value is more than 100 h.
The same measure, in the same setting: the value for K[Gly(cPent)]RRAIEQL (Survivin 130-138 derivative) [K-[cpg]-RRAIEQL] was 50.6 h; that for I[Gly(cPent)]TFKNWPF (Survivin 19-27 derivative) [I-[cpg]-TFKNWPF] was 1.9 h; that for ISTFKNWPF [Native Survivin 19-27 peptide ISTFKNWPF] was 0.24 h.
Consider KVRRAIEQL [Native Survivin 130-138 peptide KVRRAIEQL], for which the “Half Life of Complex” value turned out to be 1.9 h.
Still for that read-out and setting: for B1 the value was 11.9 h.

Another test concerns the target T1, HLA-A2 (HLA-A0201) MHC class I complex. Kind of test: ITopia soluble class I plate-based stability assay; reference is the native survivin peptide (SEQ ID NO: 31). On the procedure: as §1
As for K[Gly(cPent)]RRAIEQL (Survivin 130-138 derivative) [K-[cpg]-RRAIEQL], the “fold increase in the half life of the HLA-A2 peptide complex compared to the native survivin peptide” value is more than 20 fold.

These data come from patent publication US20140050749A1 (PURDUE PHARMA L P, published 2014).
